From patent publication US20130203167

Target: WDR5-RbBP5-Ash2L subcomplex (UniProt P61964)

## MLL^3745(R3765A)
  H3K4 dimethylation activity of the MLL1 core complex (MALDI-TOF mass spectrometry): a loss of H3K4 dimethylation activity of the MLL1 core complex when Arg-3765 of the MLL1 component is replaced by an alanine
